{"source": "paper PMC12192683", "target": "low-density lipoprotein receptor-related protein 1 (LRP1), full-length, purified from human placenta (human) (UniProt Q07954)", "sequence (Q07954 20-4544)": "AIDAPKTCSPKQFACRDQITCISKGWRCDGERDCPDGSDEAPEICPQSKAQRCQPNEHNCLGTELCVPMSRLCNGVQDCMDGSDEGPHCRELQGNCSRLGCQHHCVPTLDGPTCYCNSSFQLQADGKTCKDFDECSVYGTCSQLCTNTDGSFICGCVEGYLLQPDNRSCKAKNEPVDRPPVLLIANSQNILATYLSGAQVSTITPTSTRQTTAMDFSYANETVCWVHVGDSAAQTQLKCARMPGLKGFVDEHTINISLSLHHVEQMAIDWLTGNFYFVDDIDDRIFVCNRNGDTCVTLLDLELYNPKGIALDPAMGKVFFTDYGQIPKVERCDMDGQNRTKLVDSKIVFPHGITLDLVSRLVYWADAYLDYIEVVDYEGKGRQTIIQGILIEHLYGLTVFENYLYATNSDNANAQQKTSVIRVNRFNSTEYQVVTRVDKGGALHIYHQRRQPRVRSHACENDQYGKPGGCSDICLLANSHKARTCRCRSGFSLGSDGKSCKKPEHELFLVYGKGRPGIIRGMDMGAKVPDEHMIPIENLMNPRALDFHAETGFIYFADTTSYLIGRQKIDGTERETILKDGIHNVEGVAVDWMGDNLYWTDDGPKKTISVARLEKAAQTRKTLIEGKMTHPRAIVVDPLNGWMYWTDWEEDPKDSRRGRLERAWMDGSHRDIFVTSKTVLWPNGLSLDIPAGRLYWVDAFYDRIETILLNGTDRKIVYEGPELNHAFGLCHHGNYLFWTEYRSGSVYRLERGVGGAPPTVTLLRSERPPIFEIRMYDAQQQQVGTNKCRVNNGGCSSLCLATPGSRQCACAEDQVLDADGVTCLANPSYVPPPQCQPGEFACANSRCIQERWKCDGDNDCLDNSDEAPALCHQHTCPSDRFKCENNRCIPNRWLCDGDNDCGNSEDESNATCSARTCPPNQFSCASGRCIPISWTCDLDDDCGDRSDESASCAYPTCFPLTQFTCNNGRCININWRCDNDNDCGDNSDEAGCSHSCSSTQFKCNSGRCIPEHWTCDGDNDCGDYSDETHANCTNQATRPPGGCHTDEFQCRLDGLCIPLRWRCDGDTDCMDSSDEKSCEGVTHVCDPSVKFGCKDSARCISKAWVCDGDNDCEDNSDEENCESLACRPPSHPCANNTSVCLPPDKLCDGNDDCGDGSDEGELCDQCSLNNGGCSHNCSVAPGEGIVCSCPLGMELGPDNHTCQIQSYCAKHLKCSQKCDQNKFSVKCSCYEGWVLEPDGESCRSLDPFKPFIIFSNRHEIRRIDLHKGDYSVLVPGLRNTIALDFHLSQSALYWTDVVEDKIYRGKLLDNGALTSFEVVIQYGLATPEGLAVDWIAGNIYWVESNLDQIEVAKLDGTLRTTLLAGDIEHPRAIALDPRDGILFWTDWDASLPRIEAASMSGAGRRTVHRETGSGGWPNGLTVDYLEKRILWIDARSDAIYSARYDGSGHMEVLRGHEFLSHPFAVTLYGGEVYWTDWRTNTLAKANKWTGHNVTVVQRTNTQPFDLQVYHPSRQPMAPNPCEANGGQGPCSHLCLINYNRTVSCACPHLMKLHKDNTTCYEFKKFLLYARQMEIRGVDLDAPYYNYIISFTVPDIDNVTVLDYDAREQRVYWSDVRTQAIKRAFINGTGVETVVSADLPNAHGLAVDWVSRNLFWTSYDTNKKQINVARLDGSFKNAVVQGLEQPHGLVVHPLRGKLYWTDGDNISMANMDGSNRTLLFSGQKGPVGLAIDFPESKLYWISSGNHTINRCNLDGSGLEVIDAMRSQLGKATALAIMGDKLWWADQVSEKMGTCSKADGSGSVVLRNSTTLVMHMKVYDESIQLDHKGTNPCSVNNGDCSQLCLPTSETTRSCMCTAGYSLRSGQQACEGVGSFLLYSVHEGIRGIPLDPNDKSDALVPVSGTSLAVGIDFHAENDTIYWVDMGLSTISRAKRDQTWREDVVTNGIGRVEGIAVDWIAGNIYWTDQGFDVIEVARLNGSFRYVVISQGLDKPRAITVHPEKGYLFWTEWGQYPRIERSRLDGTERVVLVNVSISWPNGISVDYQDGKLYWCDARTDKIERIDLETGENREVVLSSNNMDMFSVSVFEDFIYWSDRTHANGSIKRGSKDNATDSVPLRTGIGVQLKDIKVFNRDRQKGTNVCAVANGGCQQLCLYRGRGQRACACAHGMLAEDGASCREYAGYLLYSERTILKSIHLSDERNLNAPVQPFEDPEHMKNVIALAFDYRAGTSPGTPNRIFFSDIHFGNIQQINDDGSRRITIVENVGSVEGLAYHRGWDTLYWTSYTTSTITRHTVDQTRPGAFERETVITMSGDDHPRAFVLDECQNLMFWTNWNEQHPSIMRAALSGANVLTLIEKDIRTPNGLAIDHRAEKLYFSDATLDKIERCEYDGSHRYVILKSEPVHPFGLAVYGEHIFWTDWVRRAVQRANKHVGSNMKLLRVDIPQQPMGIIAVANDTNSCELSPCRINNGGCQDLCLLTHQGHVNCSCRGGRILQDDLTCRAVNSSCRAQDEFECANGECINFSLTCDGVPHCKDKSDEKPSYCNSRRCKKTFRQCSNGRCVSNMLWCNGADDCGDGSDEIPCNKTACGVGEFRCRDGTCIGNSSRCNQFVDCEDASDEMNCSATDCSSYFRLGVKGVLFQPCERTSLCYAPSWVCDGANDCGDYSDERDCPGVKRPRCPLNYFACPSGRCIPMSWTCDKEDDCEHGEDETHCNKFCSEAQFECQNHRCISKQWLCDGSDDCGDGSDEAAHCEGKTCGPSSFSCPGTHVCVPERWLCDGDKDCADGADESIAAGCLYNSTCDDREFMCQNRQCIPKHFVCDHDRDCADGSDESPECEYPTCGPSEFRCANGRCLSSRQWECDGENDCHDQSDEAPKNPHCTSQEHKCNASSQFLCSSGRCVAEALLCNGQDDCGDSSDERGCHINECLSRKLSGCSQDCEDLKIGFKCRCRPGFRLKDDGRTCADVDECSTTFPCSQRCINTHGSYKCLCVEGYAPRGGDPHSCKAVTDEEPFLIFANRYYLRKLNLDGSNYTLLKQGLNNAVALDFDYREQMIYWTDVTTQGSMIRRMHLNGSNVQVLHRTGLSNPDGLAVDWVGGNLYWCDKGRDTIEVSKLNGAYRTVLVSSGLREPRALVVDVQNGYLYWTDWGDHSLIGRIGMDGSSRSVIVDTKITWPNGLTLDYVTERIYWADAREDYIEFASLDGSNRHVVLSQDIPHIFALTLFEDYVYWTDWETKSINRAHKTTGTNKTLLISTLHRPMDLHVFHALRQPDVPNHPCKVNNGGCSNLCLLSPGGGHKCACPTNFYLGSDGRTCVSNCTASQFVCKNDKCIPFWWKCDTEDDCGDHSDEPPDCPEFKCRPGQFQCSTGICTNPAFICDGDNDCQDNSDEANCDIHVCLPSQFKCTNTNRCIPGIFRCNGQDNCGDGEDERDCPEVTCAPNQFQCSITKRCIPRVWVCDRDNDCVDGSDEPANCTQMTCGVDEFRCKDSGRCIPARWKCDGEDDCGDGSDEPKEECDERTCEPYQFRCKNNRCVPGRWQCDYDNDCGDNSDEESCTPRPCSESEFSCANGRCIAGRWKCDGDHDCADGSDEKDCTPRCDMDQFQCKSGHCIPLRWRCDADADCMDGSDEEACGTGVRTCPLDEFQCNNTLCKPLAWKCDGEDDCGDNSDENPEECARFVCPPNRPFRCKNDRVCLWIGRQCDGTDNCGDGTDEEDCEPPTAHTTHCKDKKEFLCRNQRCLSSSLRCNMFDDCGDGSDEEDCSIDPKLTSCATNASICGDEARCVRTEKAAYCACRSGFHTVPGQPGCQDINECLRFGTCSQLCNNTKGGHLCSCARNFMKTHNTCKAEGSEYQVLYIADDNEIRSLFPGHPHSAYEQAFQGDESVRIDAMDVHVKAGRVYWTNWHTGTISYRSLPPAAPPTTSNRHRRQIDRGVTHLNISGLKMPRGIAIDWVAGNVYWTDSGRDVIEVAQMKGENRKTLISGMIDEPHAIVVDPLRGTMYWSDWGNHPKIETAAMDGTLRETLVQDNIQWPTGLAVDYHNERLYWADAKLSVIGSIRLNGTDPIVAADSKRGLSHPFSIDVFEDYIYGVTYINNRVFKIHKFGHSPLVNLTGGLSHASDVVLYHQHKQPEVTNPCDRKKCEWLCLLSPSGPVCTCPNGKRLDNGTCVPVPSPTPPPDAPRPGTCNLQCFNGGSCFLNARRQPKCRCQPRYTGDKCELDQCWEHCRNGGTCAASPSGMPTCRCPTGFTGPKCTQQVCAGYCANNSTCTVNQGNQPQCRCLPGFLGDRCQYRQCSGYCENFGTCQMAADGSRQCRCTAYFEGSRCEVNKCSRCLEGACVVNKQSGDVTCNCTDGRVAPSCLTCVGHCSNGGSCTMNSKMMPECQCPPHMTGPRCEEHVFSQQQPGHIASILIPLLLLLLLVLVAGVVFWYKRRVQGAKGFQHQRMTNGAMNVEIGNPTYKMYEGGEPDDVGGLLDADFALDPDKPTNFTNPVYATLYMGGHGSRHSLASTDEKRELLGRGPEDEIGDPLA", "assay": "SPR; LRP1 amine-coupled to CM5 chip; RBD or alkylated RBD flowed in HBS-P with 1 mM CaCl2, 25 C; equilibrium analysis (Req against concentration, single class of sites) and single injections of 1 uM", "data": [{"substance": "SARS-CoV-2 spike protein receptor binding domain (Arg319-Phe541), his tagged (from UniProt P0DTC2 319-541) (domain or fragment)", "values": [{"measurement": "Kd", "result": 192, "unit": "nM"}]}]}
